Laboratory results published in paper PMC10637973 (The Journal of Biological Chemistry, 2023).
Numbering of substitutions follows the chain as printed. In names and notes the source's numbering stands. One block for each binder: values may come before it.

How the values were obtained:
mono-ubiquitin = target: T1, mono-ubiquitin (UniProt P0CG47 1-76); assay: ITC; ubiquitin samples (200–500 μM) titrated into USP11 samples (20–30 μM); 50 mM Tris-Cl, pH 7.5, 150 mM NaCl, 1% (v/v) glycerol; 25 °C; one-site binding model; details: both partners purified
T1 construct: ubiquitin (the reaction product, residues 1-76); also called product ubiquitin; source: E. coli BL21(DE3)-Codon Plus; purification of the ubiquitin constructs not described

linear diubiquitin = target: T2, linear diubiquitin (UniProt P0CG47 1-76; P0CG47 1-76); assay: as above; details: both partners purified
T2 construct: ubiquitin, distal moiety (residues 1-76); ubiquitin, proximal moiety, its Met1 (Met77 of the chain) joined by a peptide bond to Gly76 of the distal moiety; source: E. coli BL21(DE3)-Codon Plus; purification of the ubiquitin constructs not described

binding result (linear diubiquitin): binds
B3: USP11-D1D2 C318S/D886G (enzyme, human)
chain: MSEEDEDFKGQPGICGLTNLGNTSFMNSALQCLSNVPQLTEYFLNNCYLEELNFRNPLGMKGEIAEAYADLVKQAWSGHHRSIVPHVFKNKVGHFASQFLGYQQHDSQELLSFLLDGLHEDLNRVKKKEYVELCDAAGRPDQEVAQEAWQNHKRRNDSVIVDTFHGLFKSTLVCPDCGNVSVTFDPFCYLSVPLPASTSKPVRLQECIELFTTVETLEKENPWYCPSCKQHQLATKKLDLWMLPEILIIHLKRFSYTKFSREKLDTLVEFPIRDLDFSEFVIQPQNESNPELYKYDLIAVSNHYGGMRGGHYTTFACNKDSGQWHYFDDNSVSPVNENQIESKAAYVLFYQRQDVARRLL
notes: USP11, human, catalytic subdomain D1, residues Met295-Pro489; numbering of UniProt P51784; linker that replaces the insertion between subdomains D1 and D2; USP11, human, catalytic subdomain D2, residues Pro778-Leu937; Made from the USP11-D1D2 C318S template; source: E. coli BL21(DE3)-Codon Plus, purified (Ni2+ HiTrap chelating column, SEC Superdex 200); not shown: His tag (from the Ni2+ chelating …)

Kd (mono-ubiquitin): 1100 nM
B4: USP11-D1D2 R885G (enzyme, human)
chain: B3 chain with S24C, R308G, G309D
notes: USP11, human, catalytic subdomain D1, residues Met295-Pro489; numbering of UniProt P51784; linker that replaces the insertion between subdomains D1 and D2; USP11, human, catalytic subdomain D2, residues Pro778-Leu937; source: E. coli BL21(DE3)-Codon Plus, purified (Ni2+ HiTrap chelating column, SEC Superdex 200); not shown: His tag (from the Ni2+ chelating column)

Continued, binder first:

B1: USP11-D1D2 (enzyme, human)
chain: B3 chain with S24C, G309D
notes: USP11, human, catalytic subdomain D1, residues Met295-Pro489; numbering of UniProt P51784; linker that replaces the insertion between subdomains D1 and D2; USP11, human, catalytic subdomain D2, residues Pro778-Leu937; also called USP11 catalytic core; USP11 catalytic domain; source: E. coli BL21(DE3)-Codon Plus, purified (Ni2+ HiTrap chelating column, SEC Superdex 200); not shown: His tag (from …)
Kd (mono-ubiquitin): ~3500 nM

B2: USP11-D1D2 H399Q (enzyme, human)
chain: B3 chain with S24C, H105Q, G309D
notes: as for B4
Kd (mono-ubiquitin): ~2000 nM
